Results on three molecules are retold here after patent US9896489B2, “Family of synthetic polynucleotide-binding peptides and uses thereof” (Eastern Virginia Medical School, priority 2012, dated 2018).

For one experiment, the system named is NIH3T3 cells. The experiment in a line: Purα injected into NIH3T3 cells at cell-cycle transition points. It counts as cell-based. On the procedure: Purα was injected into NIH3T3 cells during various cell-cycle transition points to determine the effects of elevated Purα levels at different phases of the cell cycle. […] In FIG. 2, the clear bar represents dividing cells, the black bar represents non-dividing cells, and the shaded bar represents rapid cell death.

Experiment [1] has as its system ras-transformed and non-transformed NIH3T3 cells. In words: Cell cycle progression (FACS DNA content) in cells stably transfected to over-express Purα. It counts as cell-based. Conditions: two to five-fold elevated levels of Purα in stably transfected cell lines. An excerpt: Cells were released from a double thymidine block, which arrests cells upon entry to S phase, into normal growth medium. Samples were subjected to fluorescence-activated cell sorting to determine cellular DNA content.
Stably transfected or co-transfected pools and transfected clones are shown on the right.
A pool of ras-transformed cells were stably transfected or co-transfected with the following: (a) pBABE, an empty vector; (b) pBABE+pBK, both empty expression vectors; (c) pBABE+pBKPurα, to over-express Purα; (d) pBABE+pBKPurα^low to express Purα at a level near that of endogenous Purα; (e) pBABE+pBKPurα^high to express Purα at a level nearly 5-fold that of endogenous Purα; (f) pEBV, an empty expression vector (g) pEBVPurα to over-express Purα. 4N indicates completion of DNA synthesis.

Experiment [2] deals with ALS ssDNA (GGGGCC hexanucleotide repeat expanded at C9ORF72). In words: Electrophoretic mobility shift assay with ALS ssDNA. It counts as binding. The settings on record: for binding of ALS repeat (qualitative): DNA concentration courses. On the procedure:
Infrared oligonucleotides representing a GGGGCC hexanucleotide repeat expanded at C9ORF72 in ALS patients were custom ordered and are referred to as ALS ssDNA. 4% polyacrylamide gel electrophoresis was performed using IR-labeled oligonucleotides and imaged using the Li-Cor Odyssey IR imaging instrumentation and software.
Electrophoretic Mobility Shift Assay-Various combinations of Purα, Purβ, TZIP, and IR-labeled oligonucleotides were prepared in the 5× Johnson binding buffer (Bergemann, Andrew D and Johnson, Edward M (1992), The HeLa Pur Factor Binds Single-Stranded DNA at a Specific Element Conserved in Gene Flanking Regions and Origins of DNA Replication. Molecular and Cellular Biology, vol 12:3 (1257-1265), incorporated by reference herein in its entirety), adjusted to 5 mM DTT, 5 mM EDTA, and 0.5% Tween 20. 4% polyacrylamide gel electrophoresis was performed on samples and imaged with the Li-Cor Odyssey instrumentation and software. Densitometry was performed on the DNA concentration course experiments using the Li-Cor Odyssey software.
A Kd value obtained for Purβ was complex and not readily interpretable.

Experiment [3] has as its system ras-transformed NIH3T3 cells. In words: Anchorage independent growth of ras-transformed NIH3T3 cells. It counts as cell-based. Conditions: pBABE and pBKPurα transfected, puromycin selected. The text has this: Purα also antagonizes colony formation and anchorage-independent growth related to ras-transformation of NIH3T3 cells. Ras-transformed cells were transfected with pBABE (empty vector) and either pBK (empty vector) or pBKPurα expression construct and selected for puromycin resistance. Referring to FIG. 4, panel A (pBABE) and panel B (pBABE+pBK) show anchorage independent cell growth.

Experiment [4] concerns the target T1, p110^RB, the hypophosphorylated form of Rb (Homo sapiens, UniProt P06400).
T1 construct: In proliferating cells, the Rb protein existed in several states of phosphorylation; endogenous in cells; host or cells: WR2E3 cells (inferred as the source of the extract put on the beads)
T1 sequence (P06400 1-928): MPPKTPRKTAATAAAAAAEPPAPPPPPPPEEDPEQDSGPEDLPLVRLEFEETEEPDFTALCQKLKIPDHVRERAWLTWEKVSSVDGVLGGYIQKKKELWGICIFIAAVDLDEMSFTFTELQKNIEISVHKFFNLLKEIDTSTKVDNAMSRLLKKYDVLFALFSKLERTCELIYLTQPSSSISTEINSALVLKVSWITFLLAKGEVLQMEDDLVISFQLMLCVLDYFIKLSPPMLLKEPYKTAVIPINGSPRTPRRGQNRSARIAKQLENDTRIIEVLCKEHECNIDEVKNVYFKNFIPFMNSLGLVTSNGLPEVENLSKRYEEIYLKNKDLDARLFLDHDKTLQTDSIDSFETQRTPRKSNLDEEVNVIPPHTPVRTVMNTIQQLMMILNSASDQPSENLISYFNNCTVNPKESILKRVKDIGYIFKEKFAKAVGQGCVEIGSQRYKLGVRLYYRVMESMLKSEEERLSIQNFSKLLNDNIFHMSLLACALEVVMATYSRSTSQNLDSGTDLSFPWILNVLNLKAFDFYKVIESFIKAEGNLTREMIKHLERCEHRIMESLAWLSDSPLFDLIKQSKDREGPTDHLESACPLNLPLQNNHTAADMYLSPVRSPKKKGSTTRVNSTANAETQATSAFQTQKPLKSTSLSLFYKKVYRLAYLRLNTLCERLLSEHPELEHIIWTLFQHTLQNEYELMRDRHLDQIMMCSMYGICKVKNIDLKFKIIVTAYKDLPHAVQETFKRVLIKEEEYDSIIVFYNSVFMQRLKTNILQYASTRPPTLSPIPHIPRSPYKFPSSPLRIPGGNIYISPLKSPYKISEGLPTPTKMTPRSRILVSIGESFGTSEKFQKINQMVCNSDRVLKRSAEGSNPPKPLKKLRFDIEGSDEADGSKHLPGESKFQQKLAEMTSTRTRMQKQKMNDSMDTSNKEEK
The experiment in a line: GST bead pull-down of Rb, anti-Rb blot. It counts as binding. The settings on record: protein on glutathione-agarose beads. The protocol: Rb was detected in extracts of monkey CV-1 cells complexed with Purα. These complexes can be immunoextracted from cell lysates using monoclonal antibodies to either Purα or Rb.
Proteins expressed in bacteria were bound to glutathione-agarose beads. Unfused GST was prepared in the same manner for use as a control. Beads containing equivalent amounts of each protein were used for each lane. Beads were collected, washed, and bound proteins were subjected to electrophoresis. The proteins were then blotted and probed with anti-Rb monoclonal antibody.
In contrast, binding of Rb to control GST alone was nil. IPP represents Rb immunoprecipitated from WR2E3 cells using rabbit polyclonal anti-Rb antibody. In proliferating cells, the Rb protein existed in several states of phosphorylation, the hypophosphorylated state, p110^RB, migrating more rapidly on SDS gels (lane 1).

Experiment [5] concerns FXS ssDNA (G-rich trinucleotide DNA repeats at FMR1). In words: Electrophoretic mobility shift assay with FXS ssDNA. It counts as binding. An excerpt: A GE Microspin GST purification module was used to purify GST-tagged Purα and Purβ from bacterial lysate. Polyacrylamide gel electrophoresis with SDS-Page gels and molecular markers were used to verify that GST, Purα, and Purβ were expressed and purified. Expressed proteins were detected using antibodies against Purα and Purβ, including monoclonal mouse anti-Pur antibody developed in Johnson laboratory (clone 10B12) and polyclonal antibody against Purβ (Abcam). Polyacrylamide gel electrophoresis with TBE buffer was used for gel-mobility shift assay. Infrared-labeled oligonucleotides representing G-rich trinucleotide DNA repeats at FMR1 in patients with Fragile X Syndrome (FXS) were custom ordered and are referred to herein as FXS ssDNA. Infrared-labeled oligonucleotide substrates in agarose and polyacrylamide gels were detected through the use of the Odyssey (LICOR) instrumentation and software. […] When Purα and Purβ are combined (FIG. 17), by increasing the amount of Purβ, the DNA is shifted more to the top of the gel. Therefore, there is more binding of the proteins to the DNA. […] In FIG. 19, TZIP enhances the mobility shift of ssDNA FXS in the presence of Purα.
Background: Mobility shift assays separate free from complexed probe on a gel.

B1: Purα: sequence-specific single-stranded DNA-binding protein; GST-tagged, purified from bacteria in the EMSA (protein)
chain: MADRDSGSEQGGAALGSGGSLGHPGSGSGSGGGGGGGGGGGGSGGGGGGAPGGLQHETQELASKRVDIQNKRFYLDVKQNAKGRFLKIAEVGAGGNKSRLTLSMSVAVEFRDYLGDFIEHYAQLGPSQPPDLAQAQDEPRRALKSEFLVRENRKYYMDLKENQRGRFLRIRQTVNRGPGLGSTQGQTIALPAQGLIEFRDALAKLIDDYGVEEEPAELPEGTSLTVDNKRFFFDVGSNKYGVFMRVSEVKPTYRNSITVPYKVWAKFGHTFCKYSEEMKKIQEKQREKRAACEQLHQQQQQQQEETAAATLLLQGEEEGEED
modifications: left off: a dimerising Fc or GST
notes: GST-tagged, purified from bacteria in the EMSA
For orientation: Kd means the equilibrium constant for the complex coming apart. Regarding B1, the “effect on cell cycle / cell fate” value in the experiment on NIH3T3 cells (introduction of Purα in G1 phase) is reported as “arrested cells at the G1-S boundary, causing programmed cell death”; in the experiment on NIH3T3 cells (introduction of Purα in later phases, such as G2-M phase), “arrested, but did not prevent, complete replication of the genome”. For the same molecule, the “S phase entry and progression” value in experiment [1] is “retarded entry into and progression through S phase”. For the same molecule, the “binding of ALS repeat (qualitative)” value in experiment [2] is “strongly bind the ALS repeat in low concentrations”. For the same molecule, in experiment [2] (densitometry of DNA concentration course), the dissociation constant (Kd) was 16 nM. Also, the anchorage independent growth result in experiment [3] is listed as “repressed anchorage independent growth”.

B2: Gst-Purα: GST fusion of Purα expressed in bacteria, bound to glutathione-agarose beads (protein)
chain: MADRDSGSEQGGAALGSGGSLGHPGSGSGSGGGGGGGGGGGGSGGGGGGAPGGLQHETQELASKRVDIQNKRFYLDVKQNAKGRFLKIAEVGAGGNKSRLTLSMSVAVEFRDYLGDFIEHYAQLGPSQPPDLAQAQDEPRRALKSEFLVRENRKYYMDLKENQRGRFLRIRQTVNRGPGLGSTQGQTIALPAQGLIEFRDALAKLIDDYGVEEEPAELPEGTSLTVDNKRFFFDVGSNKYGVFMRVSEVKPTYRNSITVPYKVWAKFGHTFCKYSEEMKKIQEKQREKRAACEQLHQQQQQQQEETAAATLLLQGEEEGEED
modifications: left off: a dimerising Fc or GST
B2: the “binding to Rb” value in experiment [4] is “bind exclusively to the hypophosphorylated forms of p110^RB”.

B3: Purβ: Pur family protein, GST-tagged, purified from bacterial lysate (protein, UniProt Q96QR8 2-312, looked up)
Transcriptional regulator …: ADGDSGSERGGGGGPCGFQPASRGGGEQETQELASKRLDIQNKRFYLDVKQNAKGRFLKIAEVGAGGSKSRLTLSMAVAAEFRDSLGDFIEHYAQLGPSSPEQLAAGAEEGGGPRRALKSEFLVRENRKYYLDLKENQRGRFLRIRQTVNRGGGGFGAGPGPGGLQSGQTIALPAQGLIEFRDALAKLIDDYGGEDDELAGGPGGGAGGPGGGLYGELPEGTSITVDSKRFFFDVGCNKYGVFLRVSEVKPSYRNAITVPFKAWGKFGGAFCRYADEMKEIQERQRDKLYERRGGGSGGGEESEGEEVDED
modifications: GST tag
notes: Pur family protein, GST-tagged, purified from bacterial lysate
Regarding B3, in experiment [5], the “binding / mobility shift of ssDNA FXS (qualitative)” value is listed as “does not shift the ssDNA FXS as strongly as Purα”. In addition, in experiment [2], the “binding of ALS repeat (qualitative)” value is “bound the ALS repeat to a much smaller degree”.
